Measured values reported in paper PMC6254359, “A helical LC3-interacting region mediates the interaction between the retroviral restriction factor Trim5α and mammalian autophagy-related ATG8 proteins” (The Journal of Biological Chemistry, 2018).

Columns and labels:
[1] = target: the molecule itself; test: AUC; sedimentation velocity, c(s) analysis of each protein alone at 20 μM; 20 °C; 10 mM Tris/HCl pH 8, 150 mM NaCl, 0.1 mM TCEP
[2] = target: T1, GABARAPL1 (UniProt Q9H0R8 1-117); test: AUC; sedimentation velocity, 20 μM RhT5 88–296 EK/RD with 0–320 μM LC3B or GABARAPL1; S value of the fast peak against concentration, one-site binding model; 20 °C; 10 mM Tris/HCl pH 8, 150 mM NaCl, 0.1 mM TCEP; conditions: both partners purified
T1 construct: also called mATG8 isoform GABARAPL1

[3] = target: LC3B H27A (UniProt Q9GZQ8 2-119, His27 to alanine); test: AUC; sedimentation velocity, c(s) analysis of equimolar mixtures, 20 μM each; 20 °C, 50,000 rpm; 10 mM Tris/HCl pH 8, 150 mM NaCl, 0.1 mM TCEP; shift of the fast-moving peak; conditions: both partners purified
[4] = target: LC3B I23R (UniProt Q9GZQ8 2-119, Ile23 to arginine); test: as above; conditions: both partners purified
[5] = target: the molecule itself; test: SEC-MALS + AUC; Trim5α mutants alone; SEC–MALLS on Superdex 75 Increase 10/300 in 10 mM Tris/HCl pH 7.8, 150 mM NaCl, 0.1 mM TCEP, 3 mM azide, and c(s) analysis of sedimentation velocity
[6] = target: autophagy-related protein LC3 B (LC3B), construct 2–119 (UniProt Q9GZQ8 2-119); test: AUC; sedimentation velocity, c(s) analysis of equimolar mixtures, 20 μM each; 20 °C, 50,000 rpm; 10 mM Tris/HCl pH 8, 150 mM NaCl, 0.1 mM TCEP; shift of the fast-moving peak; conditions: both partners purified

binding result [6] | Binder | stoichiometry N [5] | other results
binds | RhT5 88–296 EK/RD E198K (domain or fragment, Rhesus macaque, UniProt Q0PF16 88-296, looked up) PEEGQKVDHCARHGEKLLLFCQEDSKVICWLCKDSQEHRGHHTFLMEEVAQEYHVKLQTALEMLRQKQQEAEKLEADIREEKASWKIQIDYDKTNVSADFEQLREILDWEKSNELQNLEKEEEDILKSLTKSETEMVQQTQYMRELISELEHRLQGSMMDLLQGVDGIIKRIENMTLKKPKTFHKNQRRVFRAPDLKGMLDMFRELTDA | 2 | –
binds | RhT5 88–296 EK/RD Q189A (domain or fragment, Rhesus macaque, UniProt Q0PF16 88-296, looked up) PEEGQKVDHCARHGEKLLLFCQEDSKVICWLCKDSQEHRGHHTFLMEEVAQEYHVKLQTALEMLRQKQQEAEKLEADIREEKASWKIQIDYDKTNVSADFEALREILDWEESNELQNLEKEEEDILKSLTKSETEMVQQTQYMRELISELEHRLQGSMMDLLQGVDGIIKRIENMTLKKPKTFHKNQRRVFRAPDLKGMLDMFRELTDA | 2 | –
binds | RhT5 88–296 EK/RD Q203A (domain or fragment, Rhesus macaque, UniProt Q0PF16 88-296, looked up) PEEGQKVDHCARHGEKLLLFCQEDSKVICWLCKDSQEHRGHHTFLMEEVAQEYHVKLQTALEMLRQKQQEAEKLEADIREEKASWKIQIDYDKTNVSADFEQLREILDWEESNELANLEKEEEDILKSLTKSETEMVQQTQYMRELISELEHRLQGSMMDLLQGVDGIIKRIENMTLKKPKTFHKNQRRVFRAPDLKGMLDMFRELTDA | 2 | –

Second part, the binder before the results:

Binder | binding result [6] | stoichiometry N [5] | other results
Trim5α from Rhesus macaque, Bbox coiled-coil regions, residues 88–296 with the E120K/R121D mutation (domain or fragment, UniProt Q0PF16 88-296, looked up) PEEGQKVDHCARHGEKLLLFCQEDSKVICWLCKDSQEHRGHHTFLMEEVAQEYHVKLQTALEMLRQKQQEAEKLEADIREEKASWKIQIDYDKTNVSADFEQLREILDWEESNELQNLEKEEEDILKSLTKSETEMVQQTQYMRELISELEHRLQGSMMDLLQGVDGIIKRIENMTLKKPKTFHKNQRRVFRAPDLKGMLDMFRELTDA | – | – | stoichiometry N [1]: 2; Kd [2]: 78 ± 6 µM; binding result [3]: binds; binding result [4]: binds
RhT5 88–296 EK/RD E192A (domain or fragment, Rhesus macaque, UniProt Q0PF16 88-296, looked up) PEEGQKVDHCARHGEKLLLFCQEDSKVICWLCKDSQEHRGHHTFLMEEVAQEYHVKLQTALEMLRQKQQEAEKLEADIREEKASWKIQIDYDKTNVSADFEQLRAILDWEESNELQNLEKEEEDILKSLTKSETEMVQQTQYMRELISELEHRLQGSMMDLLQGVDGIIKRIENMTLKKPKTFHKNQRRVFRAPDLKGMLDMFRELTDA | – | 2 | –
RhT5 88–296 EK/RD E206A (domain or fragment, Rhesus macaque, UniProt Q0PF16 88-296, looked up) PEEGQKVDHCARHGEKLLLFCQEDSKVICWLCKDSQEHRGHHTFLMEEVAQEYHVKLQTALEMLRQKQQEAEKLEADIREEKASWKIQIDYDKTNVSADFEQLREILDWEESNELQNLAKEEEDILKSLTKSETEMVQQTQYMRELISELEHRLQGSMMDLLQGVDGIIKRIENMTLKKPKTFHKNQRRVFRAPDLKGMLDMFRELTDA | – | 2 | –
RhT5 88–296 EK/RD E192K (domain or fragment, Rhesus macaque, UniProt Q0PF16 88-296, looked up) PEEGQKVDHCARHGEKLLLFCQEDSKVICWLCKDSQEHRGHHTFLMEEVAQEYHVKLQTALEMLRQKQQEAEKLEADIREEKASWKIQIDYDKTNVSADFEQLRKILDWEESNELQNLEKEEEDILKSLTKSETEMVQQTQYMRELISELEHRLQGSMMDLLQGVDGIIKRIENMTLKKPKTFHKNQRRVFRAPDLKGMLDMFRELTDA | – | 2 | –
W196A RhT5 88–296 EK/RD (domain or fragment, Rhesus macaque, UniProt Q0PF16 88-296, looked up) PEEGQKVDHCARHGEKLLLFCQEDSKVICWLCKDSQEHRGHHTFLMEEVAQEYHVKLQTALEMLRQKQQEAEKLEADIREEKASWKIQIDYDKTNVSADFEQLREILDAEESNELQNLEKEEEDILKSLTKSETEMVQQTQYMRELISELEHRLQGSMMDLLQGVDGIIKRIENMTLKKPKTFHKNQRRVFRAPDLKGMLDMFRELTDA | – | 2 | –
RhT5 88–296 EK/RD E206K (domain or fragment, Rhesus macaque, UniProt Q0PF16 88-296, looked up) PEEGQKVDHCARHGEKLLLFCQEDSKVICWLCKDSQEHRGHHTFLMEEVAQEYHVKLQTALEMLRQKQQEAEKLEADIREEKASWKIQIDYDKTNVSADFEQLREILDWEESNELQNLKKEEEDILKSLTKSETEMVQQTQYMRELISELEHRLQGSMMDLLQGVDGIIKRIENMTLKKPKTFHKNQRRVFRAPDLKGMLDMFRELTDA | – | 2 | –
RhT5 88–296 EK/RD E197A (domain or fragment, Rhesus macaque, UniProt Q0PF16 88-296, looked up) PEEGQKVDHCARHGEKLLLFCQEDSKVICWLCKDSQEHRGHHTFLMEEVAQEYHVKLQTALEMLRQKQQEAEKLEADIREEKASWKIQIDYDKTNVSADFEQLREILDWAESNELQNLEKEEEDILKSLTKSETEMVQQTQYMRELISELEHRLQGSMMDLLQGVDGIIKRIENMTLKKPKTFHKNQRRVFRAPDLKGMLDMFRELTDA | binds | 2 | –
